Values of other authors as cited in publication PMC8531642.

Assays:
LRG1 (Homo sapiens) = LRG1 (Homo sapiens) (UniProt P02750); assay: SPR
Cytochrome c = Cytochrome c (UniProt P99999)

UniProt P02750, sequence (P02750 36-347): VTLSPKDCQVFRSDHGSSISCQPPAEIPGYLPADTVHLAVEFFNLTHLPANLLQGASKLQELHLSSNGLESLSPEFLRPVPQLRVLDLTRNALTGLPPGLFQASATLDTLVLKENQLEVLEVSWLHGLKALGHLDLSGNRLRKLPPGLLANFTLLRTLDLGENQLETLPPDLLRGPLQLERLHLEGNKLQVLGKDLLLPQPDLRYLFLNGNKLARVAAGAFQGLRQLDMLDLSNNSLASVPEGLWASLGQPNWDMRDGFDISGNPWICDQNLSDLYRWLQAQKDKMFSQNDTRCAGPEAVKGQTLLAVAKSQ
Cytochrome c, sequence (P99999 2-105): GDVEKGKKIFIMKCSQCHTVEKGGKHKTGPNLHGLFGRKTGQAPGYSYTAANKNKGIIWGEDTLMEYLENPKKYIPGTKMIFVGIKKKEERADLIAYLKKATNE

Kd (LRG1 (Homo sapiens)) [nM] | Kd (Cytochrome c) [nM] | Substance
0.000158 | – | Cytochrome c (from UniProt P99999)
– | 500 | Apaf-1 (from UniProt O14727)
2320 | – | TGF-β1 (from UniProt P01137)
